Measured values: paper PMC8061786 (Journal of Molecular Biology, 2021)

Biological target: the molecule itself
Test: crystal structure

B1: SARS-CoV main protease (M^pro) (enzyme)
chain: SGFRKMAFPSGKVEGCMVQVTCGTTTLNGLWLDDTVYCPRHVICTAEDMLNPNYEDLLIRKSNHSFLVQAGNVQLRVIGHSMQNCLLRLKVDTSNPKTPKYKFVRIQPGQTFSVLACYNGSPSGVYQCAMRPNHTIKGSFLNGSCGSVGFNIDYDCVSFCYMHHMELPTGVHAGTDLEGKFYGPFVDRQTAQAAGTDTTITLNVLAWLYAAVINGDRWFLNRFTTTLNDFNLVAMKYNYEPLTQDHVDILGPLSAQTGIAVLDMCAALKELLQNGMNGRTILGSTILEDEFTPFDVVRQCSGVTFQ
B1: binds.
